The target in test [1] is pro-nerve growth factor (proNGF, residues 19-241, furin sites changed to AA) (UniProt P01139). Nature of the test: SPR; IBIS MX96; NGF, proNGF and proBDNF amine-coupled to a P-COOH SensEye sensor; wt and mutant sSorCS2 flowed as analyte; 25 mM HEPES pH 7.4, 150 mM NaCl, 0.005 % Tween 20; 25 °C; equilibrium binding, one site saturation model (two site saturation model for proBDNF). In general terms: SPR reads the build-up and loss of mass on a sensor chip optically.

Test [2] addresses NGF in the sSorCS2-NGF crystal (degradation product of the proNGF construct) (UniProt P01139). Nature of the test: crystal structure; sSorCS2 mixed with proNGF 1:1.1, 1 mM calcium chloride; proNGF degraded to NGF in the drop; 0.225 M MES/bis-tris pH 6.6; 3.9 Å.
Test [3] addresses mouse SorCS2 mature extracellular segment (sSorCS2, residues 117-1072) (mouse) (UniProt Q9EPR5). The test is described as above.
Test [4] addresses mouse mature nerve growth factor (NGF) (mouse) (UniProt P01139). Nature of the test: SPR; IBIS MX96; NGF, proNGF and proBDNF amine-coupled to a P-COOH SensEye sensor; wt and mutant sSorCS2 flowed as analyte; 25 mM HEPES pH 7.4, 150 mM NaCl, 0.005 % Tween 20; 25 °C; equilibrium binding, one site saturation model (two site saturation model for proBDNF).

These results are taken from article PMC6065357.

A word on the Kd: it is the constant that tells how readily two partners part at equilibrium. Higher therefore signals weaker binding. By stoichiometry N is commonly meant a count of units in the complex or per binding partner.

Chain of mouse mature nerve growth factor (NGF) (mouse) (P01139 122-241): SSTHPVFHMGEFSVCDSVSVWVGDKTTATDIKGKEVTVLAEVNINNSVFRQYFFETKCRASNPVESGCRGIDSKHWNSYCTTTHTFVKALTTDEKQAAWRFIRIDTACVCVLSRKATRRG
Chain of mouse SorCS2 mature extracellular segment (sSorCS2, residues 117-1072), Q9EPR5 117-1072 (receptor; other documents disagree on this pair) (Q9EPR5 117-1072): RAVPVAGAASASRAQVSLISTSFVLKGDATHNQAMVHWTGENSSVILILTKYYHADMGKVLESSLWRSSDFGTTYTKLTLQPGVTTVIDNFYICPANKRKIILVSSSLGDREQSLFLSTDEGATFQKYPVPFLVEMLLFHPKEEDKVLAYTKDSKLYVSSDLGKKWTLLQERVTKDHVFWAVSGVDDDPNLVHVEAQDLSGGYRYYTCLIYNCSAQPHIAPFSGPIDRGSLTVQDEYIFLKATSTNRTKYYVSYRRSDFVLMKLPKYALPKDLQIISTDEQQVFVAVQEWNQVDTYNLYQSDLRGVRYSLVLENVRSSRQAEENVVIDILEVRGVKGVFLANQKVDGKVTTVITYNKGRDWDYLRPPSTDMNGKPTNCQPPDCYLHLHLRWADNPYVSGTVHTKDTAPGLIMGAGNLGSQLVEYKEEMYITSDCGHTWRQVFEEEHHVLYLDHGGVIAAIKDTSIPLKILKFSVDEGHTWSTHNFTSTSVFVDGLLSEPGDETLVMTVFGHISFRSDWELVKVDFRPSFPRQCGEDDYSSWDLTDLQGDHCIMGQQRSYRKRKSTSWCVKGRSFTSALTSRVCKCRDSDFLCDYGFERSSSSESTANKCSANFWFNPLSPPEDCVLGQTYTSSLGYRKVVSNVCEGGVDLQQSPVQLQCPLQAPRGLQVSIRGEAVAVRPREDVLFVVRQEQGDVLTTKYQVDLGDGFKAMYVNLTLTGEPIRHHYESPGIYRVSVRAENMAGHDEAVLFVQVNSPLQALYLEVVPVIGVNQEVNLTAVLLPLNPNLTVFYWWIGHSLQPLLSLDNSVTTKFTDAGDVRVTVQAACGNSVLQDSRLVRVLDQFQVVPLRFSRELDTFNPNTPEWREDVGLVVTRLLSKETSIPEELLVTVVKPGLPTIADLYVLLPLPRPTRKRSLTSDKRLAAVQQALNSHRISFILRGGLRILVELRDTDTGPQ
Chain of mouse SorCS2 mature extracellular segment (sSorCS2, residues 117-1072) (mouse) (Q9EPR5 117-1072): as above
Chain of mouse SorCS2 mature extracellular segment (sSorCS2, residues 117-1072) (Q9EPR5 117-1072): as above

Consider “mouse SorCS2 mature extracellular segment (sSorCS2, residues 117-1072) (from UniProt Q9EPR5 117-1072) (receptor)”, for which the Kd in test [1] was found to be 43 nM.

For “NGF in the sSorCS2-NGF crystal (degradation product of the proNGF construct) (from UniProt P01139 122-241) (ligand)”, the stoichiometry N in test [2] is 2. Moreover, the stoichiometry N (NGF chains per sSorCS2 chain) in test [3] was found to be 2.

The substance “mouse SorCS2 mature extracellular segment (sSorCS2, residues 117-1072), Q9EPR5 117-1072 (receptor; other documents disagree on this pair)” came in with a Kd in test [4] of 236 nM.
